Experimental findings from PMC3282106 are described below.

Some targets named below: T-Mod(Dss1A) (UniProt P31948); T-Mod(Dss1B) (UniProt P31948); the T-Mods.
Common to all, as to assay: ITC
For orientation: ITC needs no label: the signal is the heat of the interaction.

What is called Kd is the equilibrium constant for the complex coming apart. Higher therefore signals a looser complex. In general, stoichiometry N refers to a count of units in the complex or per binding partner. As for “Dss1-C19 peptide mutant R57A (from UniProt P60896 52-70)”, in the assay with T-Mod(Dss1A), the Kd turned out to be 157 µM and the stoichiometry N turned out to be 0.8. In the assay with T-Mod(Dss1B), the Kd worked out at 665 µM.
In the assay with T-Mod(Dss1A), “Dss1-C19 peptide (from UniProt P60896 52-70)” yielded a Kd of 20.2 µM and a stoichiometry N of 0.8. In the assay with T-Mod(Dss1B), the equilibrium dissociation constant (Kd) turned out to be 18.6 µM and the stoichiometry N amounted to 1.1.

B1: Sem1 (natural protein)
chain: MSTDVAAAQAQSKIDLTKKKNEEINKKSLEEDDEFEDFPIDTWANGETIKSNAVTQTNIWEENWDDVEVDDDFTNELKAELDRYKRENQ
The molecule B1 registered an equilibrium dissociation constant (Kd) with the T-Mods of 175 µM.
